Assay results published in patent US20240400703A1.

Experiments:
[1] = biological target: recombinant human OX40 fused to a His-tag (Acro Biosystems, cat. no. OX0-H5224) (human) (UniProt P43489); test: BLI cross-block; first Ab (competitor): IgG1-CD134-007
[2] = biological target: recombinant human OX40 fused to a His-tag (Acro Biosystems, cat. no. OX0-H5224) (human) (UniProt P43489); test: BLI cross-block; first Ab (competitor): IgG1-CD134-RG7888
[3] = biological target: recombinant human OX40 fused to a His-tag (Acro Biosystems, cat. no. OX0-H5224) (human) (UniProt P43489); test: BLI cross-block; first Ab (competitor): IgG1-CD134-A4453
[4] = biological target: recombinant human OX40 fused to a His-tag (Acro Biosystems, cat. no. OX0-H5224) (human) (UniProt P43489); test: BLI cross-block; first Ab (competitor): IgG1-CD134-003
[5] = biological target: recombinant human OX40 fused to a His-tag (Acro Biosystems, cat. no. OX0-H5224) (human) (UniProt P43489); test: BLI cross-block; first Ab (competitor): IgG1-CD134-49B4-RRE
[6] = biological target: recombinant human OX40 fused to a His-tag (Acro Biosystems, cat. no. OX0-H5224) (human) (UniProt P43489); test: BLI cross-block; first Ab (competitor): IgG1-CD134-SF2
[7] = biological target: recombinant human OX40 fused to a His-tag (Acro Biosystems, cat. no. OX0-H5224) (human) (UniProt P43489); test: BLI cross-block; first Ab (competitor): IgG1-CD134-GBR830
[8] = biological target: human OX40 with mouse CRD1 (human with mouse CRD1) (UniProt P43489); test: flow cytometry, transfected ExpiCHO-S cells, gMFI (PE)
[9] = biological target: recombinant human OX40 fused to a His-tag (Acro Biosystems, cat. no. OX0-H5224) (human) (UniProt P43489); test: BLI cross-block; first Ab (competitor): IgG1-CD134-h3C8
[10] = biological target: recombinant human OX40 fused to a His-tag (Acro Biosystems, cat. no. OX0-H5224) (human) (UniProt P43489); test: BLI cross-block; first Ab (competitor): IgG1-CD134-ABBV368
[11] = biological target: recombinant human OX40 fused to a His-tag (Acro Biosystems, cat. no. OX0-H5224) (human) (UniProt P43489); test: BLI cross-block; first Ab (competitor): IgG1-CD134-11D4
[12] = biological target: recombinant human OX40 fused to a His-tag (Acro Biosystems, cat. no. OX0-H5224) (human) (UniProt P43489); test: BLI cross-block; first Ab (competitor): IgG1-CD134-012
[13] = biological target: recombinant human OX40 fused to a His-tag (Acro Biosystems, cat. no. OX0-H5224) (human) (UniProt P43489); test: BLI cross-block; first Ab (competitor): IgG1-CD134-003-HC6LC2-RR
[14] = biological target: recombinant human OX40 fused to a His-tag (Acro Biosystems, cat. no. OX0-H5224) (human) (UniProt P43489); test: BLI cross-block; first Ab (competitor): IgG1-CD134-IBI101
[15] = biological target: recombinant human OX40 fused to a His-tag (Acro Biosystems, cat. no. OX0-H5224) (human) (UniProt P43489); test: BLI cross-block; first Ab (competitor): IgG1-CD134-MEDI0562
[16] = biological target: recombinant human OX40 fused to a His-tag (Acro Biosystems, cat. no. OX0-H5224) (human) (UniProt P43489); test: BLI cross-block; first Ab (competitor): IgG1-CD134-INCAGN1949
[17] = biological target: recombinant human OX40 fused to a His-tag (Acro Biosystems, cat. no. OX0-H5224) (human) (UniProt P43489); test: BLI cross-block; first Ab (competitor): IgG1-CD134-Hu106

Chain of recombinant human OX40 fused to a His-tag (Acro Biosystems, cat. no. OX0-H5224) (human) (P43489 29-214 limits assumed): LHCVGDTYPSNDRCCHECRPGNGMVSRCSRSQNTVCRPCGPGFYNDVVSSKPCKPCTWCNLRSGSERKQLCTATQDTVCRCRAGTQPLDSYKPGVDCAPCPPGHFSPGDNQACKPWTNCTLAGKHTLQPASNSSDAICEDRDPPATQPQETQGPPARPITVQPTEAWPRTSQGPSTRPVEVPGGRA
Chain of IgG1-CD134-IBI101 (antibody) (VH): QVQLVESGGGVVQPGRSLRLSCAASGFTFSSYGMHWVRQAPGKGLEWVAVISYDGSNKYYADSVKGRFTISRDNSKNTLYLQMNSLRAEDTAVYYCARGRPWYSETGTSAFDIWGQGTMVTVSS
Chain of IgG1-CD134-IBI101 (antibody) (VL): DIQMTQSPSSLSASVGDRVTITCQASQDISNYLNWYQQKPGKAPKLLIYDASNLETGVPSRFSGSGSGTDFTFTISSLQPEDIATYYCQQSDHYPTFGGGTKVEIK
Chain of human OX40 with mouse CRD1 (human with mouse CRD1) (P43489 other isoform, or with tags, fused parts or gaps limits assumed): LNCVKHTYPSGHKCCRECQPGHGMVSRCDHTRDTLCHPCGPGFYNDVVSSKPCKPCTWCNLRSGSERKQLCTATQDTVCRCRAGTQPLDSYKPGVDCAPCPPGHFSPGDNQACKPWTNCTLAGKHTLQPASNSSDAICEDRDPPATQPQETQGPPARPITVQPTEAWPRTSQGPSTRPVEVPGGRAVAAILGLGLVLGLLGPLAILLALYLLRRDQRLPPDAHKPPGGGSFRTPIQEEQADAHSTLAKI

| Substance | association response [1] [nm] | association response [2] [nm] | association response [3] [nm] | association response [4] [nm] | association response [5] [nm] | association response [6] [nm] | association response [7] [nm] | EC50 (read off the curve) [8] [µg/mL] | association response [9] [nm] | association response [10] [nm] | association response [11] [nm] | association response [12] [nm] | association response [13] [nm] | association response [14] [nm] | association response [15] [nm] | association response [16] [nm] | association response [17] [nm] |
| --- | --- | --- | --- | --- | --- | --- | --- | --- | --- | --- | --- | --- | --- | --- | --- | --- | --- |
| IgG1-CD134-INCAGN1949 (antibody) | 0.55 | 0.01 | 0.25 | 1.39 | 0 | 0.02 | 0.01 | 0.09 | -0.02 | -0.03 | 0.11 | 0.73 | 1.74 | 0.01 | 0.01 | 0 | -0.01 |
| IgG1-CD134-IBI101 (antibody) | 0.02 | 0.31 | 0.24 | 0.74 | 0 | 0.07 | 0.01 | 0.07 | -0.03 | -0.02 | 0.15 | 0.82 | 1.23 | 0.01 | 0.26 | 0.02 | -0.02 |
